Experimental data: PMC3648548

Target: GLIC NQN mutant (D91N, E177Q, D178N), pentameric ligand-gated ion channel from Gloeobacter violaceus (Gloeobacter violaceus)
Test: crystal structure; GLIC-NQN mutant in 0.01% (w/v) n-tetradecyl-β-D-maltoside, ~10 mg/ml; crystallization conditions as for GLIC and GLIC-ketamine; molecular replacement with 4F8H; five subunits in the asymmetric unit

“GLIC NQN mutant (D91N, E177Q, D178N), pentameric ligand-gated ion channel from Gloeobacter violaceus (natural protein)” was tested, and the stoichiometry N was 5.
